Experimental data from patent US20190016816A1 (APTEVO RESEARCH AND DEVELOPMENT, published 2019).

Assays:
[1] = target: T1, cynomolgus CD137 on cells (cynomolgus macaque, UniProt A9YYE7 24-254); assay: flow cytometry, MFI of the CD137 positive cells; cynomolgus CD8 T cells, MFI of CD137 positive cells
T1 construct: whole, on cells; also called CHO-K1/cynomolgus CD137 cell line; cynomolgus monkey CD137 on CD3-stimulated primary CD8 T cells
Method: (§1) Following 48 h of incubation with or without CD3, human and cynomolgus PBMC were harvested, pooled, recounted and diluted in FACS buffer (PBS+0.5% BSA, 0.05% NaN₃) to a concentration of 5×10⁶ cells/mL. 50 μL (0.25×10⁶ cells) of cell solution was added to a 96-well FACS staining plate (Falcon #351190). Following 10 min of Fc-blocking in RT using Beriglobin (hIgG, 200 μg/mL), cells were washed in FACS buffer and then incubated for 1 h in 4° C. with 100 μL of the biotinylated ALG.APV-210 or negative control. […] Cells were analysed for ALG.APV-210 binding using flow cytometry by gating on viable, single cells expressing CD3 and CD8. MFI values (FMO subtracted) from 2 independent experiments as well as normalized pooled data from 2 experiments and EC₅₀-values were determined and plotted using GraphPad Prism 7, non-linear regression log (agonist) vs. normalized response—variable slope, n=6 donors/group.
ALG.APV-210 binding was also assessed by looking at the percentage of CD8 T cells bound by ALG.APV-210. […] The binding EC₅₀ values were also calculated on the MFI of the CD137 positive cells, and the results was an EC₅₀ of 0.17 nM for binding to human CD137 and 0.20 nM for cynomolgus monkey CD137.

[2] = target: T1, cynomolgus CD137 on cells; assay: flow cytometry, MFI of all CD3+CD8+ cells gated from CD3-stimulated cynomolgus PBMC
Method: as §1, with “control. The antibodies were added in a serial dilution starting either at 5 μg/mL titrating down in a 12 step ⅓ dilution down to […] (exp 1) or 1 μg/mL titrating down in a 12 step ½ dilution down to 0.0005 μg/mL (exp 2).” for “control.”

human 5T4 on cells = target: T2, human 5T4 on cells (human, UniProt Q13641 32-420); assay: flow cytometry, SKOV-3 cells, streptavidin-PE, normalized MFI of 2 pooled experiments
T2 construct: also called TPBG; hu5T4
T2 sequence: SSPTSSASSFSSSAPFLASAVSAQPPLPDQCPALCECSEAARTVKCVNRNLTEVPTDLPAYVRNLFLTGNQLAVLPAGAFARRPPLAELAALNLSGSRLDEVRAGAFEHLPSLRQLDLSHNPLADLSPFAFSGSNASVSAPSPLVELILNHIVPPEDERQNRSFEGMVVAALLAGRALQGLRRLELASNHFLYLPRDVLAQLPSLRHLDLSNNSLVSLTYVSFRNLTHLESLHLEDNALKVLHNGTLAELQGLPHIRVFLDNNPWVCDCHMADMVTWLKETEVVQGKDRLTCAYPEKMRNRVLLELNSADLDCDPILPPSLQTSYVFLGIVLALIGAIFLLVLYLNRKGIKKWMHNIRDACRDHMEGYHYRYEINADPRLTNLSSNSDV
Method: Prior to the FACS staining, all cell lines were characterized for their 5T4 expression levels using a receptor density kit (Quantum Simply Cellular, anti-human IgG, Bangs Laboratories, Inc). Adherent cell lines were cultured according to their supplier's instructions and were harvested from their cell culture flasks using Trypsin/EDTA, counted in R10 medium in a Burker chamber, and diluted in FACS buffer (PBS+0.5% BSA, 0.05% NaN₃) to a concentration of 4×10⁶ cells/mL. 50 μL (0.20×10⁶) of cell solution was added to a 96-well FACS staining plate (Falcon #351190). Cells were incubated for 20 min in 4° C. with 50 μL of the biotinylated ALG.APV-210 (2× final concentration). The antibodies were added in a serial dilution starting at 20 μg/mL titrating down in a 12 step ½ dilution down to 0.010 μg/mL. Following 2× washing with FACS buffer, cells were incubated for 30 min in 4° C. with 100 μL of a secondary antibody (streptavidin-PE, BD #554061, diluted 1/500). […] Cells were analysed for ALG.APV-210 binding using flow cytometry (FACSVerse) by gating on single cells. MFI values (secondary antibody only subtracted) from 1 out of 2 independent experiments, as well as normalized data and EC₅₀-values of pooled data from 2 experiments were determined and plotted using GraphPad Prism 7, non-linear regression log (agonist) vs. normalized response—variable slope.

T1 sequence (A9YYE7 entry or part of it): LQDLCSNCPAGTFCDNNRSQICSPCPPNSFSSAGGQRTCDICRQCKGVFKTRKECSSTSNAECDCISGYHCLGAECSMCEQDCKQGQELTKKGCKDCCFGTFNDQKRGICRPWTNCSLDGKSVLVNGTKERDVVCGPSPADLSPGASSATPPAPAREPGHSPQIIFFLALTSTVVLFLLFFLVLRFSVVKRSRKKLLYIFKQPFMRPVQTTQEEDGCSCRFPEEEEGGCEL

B1: biotinylated ALG.APV-210 (bispecific antibody)
chain: EVQLLESGGGLVQPGGSLRLSCAASGFTFSHGSMYWVRQAPGKGLEWVSSISSGSGSTYYADSVKGRFTISHDNSKNTLYLQMNSLRAEDTAVYYCARSSYYGSYYSIDYWGQGTLVTVSSGGGGSGGGGSGGGGSGGGGSDIQMTQSPSSLSASVGDRVTITCRASQSISSYLNWYQQKPGKAPKLLIYAASSLQSGVPSRFSGSGSGTDFTLTISSLQPEDFATYYCQQYYDNLPTFGQGTKLEIKEPKSSDKTHTCPPCPAPEAAGAPSVFLFPPKPKDTLMISRTPEVTCVVVDVSHEDPEVKFNWYVDGVEVHNAKTKPREEQYNSTYRVVSVLTVLHQDWLNGKEYKCAVSNKALPAPIEKTISKAKGQPREPQVYTLPPSRDELTKNQVSLTCLVKGFYPSDIAVEWESNGQPENNYKTTPPVLDSDGSFFLYSKLTVDKSRWQQGNVFSCSVMHEALHNHYTQKSLSLSPGSGGGGSGGGGSGGGGSPSEVQLLESGGGLVQPGGSLRLSCAASGFTFSSYAMSWVRQAPGKCLEWVSAISGSGGSTYYADSVKGRFTISRDNSKNTLYLQMNSLRAEDTAVYYCARYYGGYYSAWMDYWGQGTLVTVSSGGGGSGGGGSGGGGSGGGGSDIQMTQSPSSLSASVGDRVTITCRASQSISSFLNWYQQKPGKAPKLLIYAASSLQSGVPSRFSGSGSGTDFTLTISSLQPEDSATYYCQQTYGYLHTFGCGTKLEIKR
notes: also called ALG.APV-210 (biotinylated for FACS detection)
B1 gave an EC50 [1] of 200 pM, an EC50 [2] of 236 pM and an EC50 (human 5T4 on cells) of 15000 pM.
